Assay [1] has as its target T1, human IL-11 (human, UniProt P20809 22-199).
T1 sequence: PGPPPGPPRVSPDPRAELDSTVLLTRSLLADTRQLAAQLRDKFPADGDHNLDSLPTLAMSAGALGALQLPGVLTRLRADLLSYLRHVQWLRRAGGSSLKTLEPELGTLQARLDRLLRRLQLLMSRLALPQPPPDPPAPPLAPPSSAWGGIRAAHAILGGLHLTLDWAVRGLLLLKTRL
In words: cell-based or functional assay.

The target in assay [2] is T2, murine IL-11 (mouse, UniProt P47873 22-199).
T2 sequence: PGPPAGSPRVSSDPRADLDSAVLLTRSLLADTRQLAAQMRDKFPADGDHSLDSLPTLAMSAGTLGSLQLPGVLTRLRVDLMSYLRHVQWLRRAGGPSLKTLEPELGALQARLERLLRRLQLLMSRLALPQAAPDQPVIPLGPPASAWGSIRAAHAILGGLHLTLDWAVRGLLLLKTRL
In words: cell-based or functional assay.

Assay [3] concerns the target T3, human IL-11 (human, UniProt P20809 22-199).
T3 sequence: T1 sequence
In words: cell-based or functional assay. This is another data set of the same source.

Assay [4] concerns the target T4, murine IL-11 (mouse, UniProt P47873 22-199).
T4 sequence: T2 sequence
In words: cell-based or functional assay. The source holds these as a separate data set.

The target in another assay is T5, human IL2Ra (human, UniProt P01589 22-240, limits assumed).
T5 construct: bought protein, coated on the plate; also called hIL2RA; IL-2 receptor alpha
T5 sequence (looked up): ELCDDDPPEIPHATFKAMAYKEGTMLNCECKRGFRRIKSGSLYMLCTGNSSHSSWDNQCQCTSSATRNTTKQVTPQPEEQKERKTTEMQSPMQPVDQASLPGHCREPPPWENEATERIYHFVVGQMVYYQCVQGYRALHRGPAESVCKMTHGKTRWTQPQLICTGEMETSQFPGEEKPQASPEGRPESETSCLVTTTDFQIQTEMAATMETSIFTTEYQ
In words: IL2Ra direct binding ELISA, signal ratio to isotype control. On the procedure: IL2RA (Peprotech, Germany, #200-02RC) was coated at 1 or 0 μg/ml (buffer only control) in 30 μl coating buffer (Candor, #113500) per well on a 384 well microtiter plate (Maxisorb, Nunc, #460518) over night at 4-8° C. After two washes with 50 μl/well washing buffer (PBS+0.05% Tween, pH 7.4), the plates were incubated for two hours at room temperature with 50 μl/well SmartBlock (Candor, #113500). After blocking, the plates were washed three times with washing buffer. Then, a dilution series of the respective antibody (1E-7 [M] down to 2E-13 [M]) in PBS+0.05% Tween, 10% SmartBlock were added in 30 μl to the microtiter plate and incubated for 90 min at room temperature. After three additional washes, 30 μl anti mouse IgG HRP-conjugated antibody (Biotechne, HAF007), diluted 1:1000 in PBS+0.05% Tween (pH 7.4), were added per well and incubated for one hour. After three additional washes, a mixture of Amplex red (Invitrogen, #12222, 10 mM stock solution in DMSO) 1:1000 diluted in PBS and H2O2 (30%, Merck, #107209)) diluted 1:10000 in PBS were added as substrate with 30 μl per well and incubated for 20 min in the dark. Relative fluorescence was measured with a microtiter plate reader at 535/590 nm.
Next, the 42 antibodies were subjected to an IL2Ra binding ELISA as described in Example 20.
Background: In an ELISA, binding on a coated surface is turned into a signal by an enzyme label.

Positions count from the first letter of the chain named. A value given as a limit tells only on which side of the number the result lay.

B1: TPP-31308 (antibody, IgG4, V domains shown)
VH: EVQLLESGGGLVQPGGSLRLSCAASGFTFSHYDMNWLRQAPGKGLEWVGVISYDSSNKFYADFVKGRFTISRDNSKNTLYLQMNSLRAEDTAVYYCARTPGSHFDYWGQGTLVTVSS
VL: QSVLTQPPSASGTPGQRVTISCSGSSSNIGNNAVNWYQQLPGTAPKLLIYYDDLLPSGVPDRFSGSKSGTSASLAISGLRSEDEADYYCSAWDDSLNGVVFGGGTKLTVL
On to B1, for which, in the assay with human IL-11 [1], the “IC50, RGA 1” value is above 500 nM and the “IC50, RGA 2” value is above 500 nM. In the assay with murine IL-11 [2], the “IC50, RGA 1” value turned out to be 63 nM and the “IC50, RGA 2” value was determined as 170 nM.

B2: TPP-31281 (antibody, IgG4, V domains shown)
VH: B1 VH with S55G
VL: B1 VL with D52N
As to B2, the “IC50, RGA 1” value in the assay with human IL-11 [1] and in the assay with murine IL-11 [2] was above 500 nM throughout.

B3: TPP-31290 (antibody, IgG4, V domains shown)
VH: B1 VH with H31S, S55G
VL: B1 VL
On to B3, for which the “IC50, RGA 1” value with human IL-11 [1] and with murine IL-11 [2] was above 500 nM in each case.

B4: TPP-31283 (antibody, IgG4, V domains shown)
VH: B1 VH with S55G
VL: B1 VL with L54Q
B4: in the assay with human IL-11 [1], the “IC50, RGA 1” value was above 500 nM and the “IC50, RGA 2” value is 200 nM. Besides, in the assay with murine IL-11 [2], the “IC50, RGA 1” value was found to be 247 nM and the “IC50, RGA 2” value came to 118 nM.

B5: TPP-31309 (antibody, IgG4, V domains shown)
VH: B1 VH
VL: B1 VL with N97Q
On to B5, for which the “IC50, RGA 1” value with human IL-11 [1] amounted to 261 nM; in the assay with murine IL-11 [2], 108 nM. Moreover, the “IC50, RGA 2” value is 122 nM with human IL-11 [1] and 68 nM with murine IL-11 [2].

B6: TPP-31279 (antibody, IgG4, V domains shown)
VH: B1 VH with S55G
VL: B1 VL with N35Y
Regarding B6, in the assay with human IL-11 [1], the “IC50, RGA 1” value is above 500 nM and the “IC50, RGA 2” value was above 500 nM. Besides, in the assay with murine IL-11 [2], the “IC50, RGA 1” value turned out to be 196 nM and the “IC50, RGA 2” value is above 500 nM.

B7: TPP-31311 (antibody, IgG4, V domains shown)
VH: B1 VH
VL: B1 VL with G98A
Take B7: the “IC50, RGA 1” value in the assay with human IL-11 [1] was above 500 nM; in the assay with murine IL-11 [2] it was 76 nM. Further, the “IC50, RGA 2” value in the assay with human IL-11 [1] worked out at 34 nM; in the assay with murine IL-11 [2] it was 127 nM.

B8: TPP-31291 (antibody, IgG4, V domains shown)
VH: B1 VH with D33G, S55G
VL: B1 VL
In the case of B8, the “IC50, RGA 1” value with human IL-11 [1] and in the assay with murine IL-11 [2] was above 500 nM in each case.

B9: TPP-31310 (antibody, IgG4, V domains shown)
VH: B1 VH
VL: B1 VL with N97S
Turning to B9, in the assay with human IL-11 [1], the “IC50, RGA 1” value is above 500 nM and the “IC50, RGA 2” value was above 500 nM. For the same molecule, in the assay with murine IL-11 [2], the “IC50, RGA 1” value was found to be 144 nM and the “IC50, RGA 2” value is 75 nM.

B10: TPP-31282 (antibody, IgG4, V domains shown)
VH: B1 VH with S55G
VL: B1 VL with D53N
As to B10, in the assay with human IL-11 [1], the “IC50, RGA 1” value was determined as 345 nM and the “IC50, RGA 2” value was 287 nM. Further, in the assay with murine IL-11 [2], the “IC50, RGA 1” value amounted to 70 nM and the “IC50, RGA 2” value worked out at 28 nM.

B11: TPP-31280 (antibody, IgG4, V domains shown)
VH: B1 VH with S55G
VL: B1 VL with Y51R
For B11, the “IC50, RGA 1” value with human IL-11 [1] and with murine IL-11 [2] was above 500 nM each time.

B12: TPP-26291 (antibody, V domains shown)
VH: EVQLLESGGGLVQPGGSLRLSCAASGFTFSSYGMHWVRQAPGKGLEWVSVISYDGSYKYYADSVKGRFTISRDNSKNTLYLQMNSLRAEDTAVYYCAAGVPDYWGQGTLVTVSS
VL: QSVLTQPPSASGTPGQRVTISCTGSSSNIGAGYDVHWYQQLPGTAPKLLIYSNNERPSGVPDRFSGSKSGTSASLAISGLRSEDEADYYCAAWDPSLNGPVFGGGTKLTVL
Turning to B12, the results for the “RGA Efficacy (%)” value with human IL-11 [3] and with murine IL-11 [4] were 68.9% and 92.1%, respectively. In addition, the entries for the “RGA IC50” value with human IL-11 [3] and in the assay with murine IL-11 [4] were 4.1 nM and 1.6 nM, respectively. Also, in the assay with human IL2Ra, the “hIL2RA ELISA Binding: Ratio to Isotpye” value was 334 ratio.

B13: TPP-26295 (antibody, V domains shown)
VH: B12 VH
VL: B12 VL with P95H
As to B13, in the assay with human IL-11 [3], the “RGA Efficacy (%)” value stood at 69.2% and the “RGA IC50” value is 13 nM. In the assay with murine IL-11 [4], the “RGA Efficacy (%)” value came to 93.9% and the “RGA IC50” value turned out to be 2.1 nM. The “hIL2RA ELISA Binding: Ratio to Isotpye” value with human IL2Ra was found to be 385 ratio.

B14: TPP-26294 (antibody, V domains shown)
VH: B12 VH
VL: B12 VL with G32A, P95D
Consider B14, for which, in the assay with human IL-11 [3], the “RGA Efficacy (%)” value amounted to 69.4% and the “RGA IC50” value is 9.8 nM. In the assay with murine IL-11 [4], the “RGA Efficacy (%)” value is 97.9% and the “RGA IC50” value stood at 1.5 nM. Also, the “hIL2RA ELISA Binding: Ratio to Isotpye” value with human IL2Ra came to 275 ratio.

B15: TPP-26297 (antibody, V domains shown)
VH: B12 VH
VL: B12 VL with D94Q, P95D
As to B15, the “RGA Efficacy (%)” value with human IL-11 [3] worked out at 57.1%; with murine IL-11 [4], 93.5%. The “RGA IC50” value amounted to 3.7 nM with human IL-11 [3] and 1.8 nM with murine IL-11 [4]. The “hIL2RA ELISA Binding: Ratio to Isotpye” value with human IL2Ra was 183 ratio.

B16: TPP-26300 (antibody, V domains shown)
VH: B12 VH
VL: B12 VL with P95S
Turning to B16, in the assay with human IL-11 [3], the “RGA Efficacy (%)” value came out at 75.5% and the “RGA IC50” value turned out to be 3.3 nM. Besides, in the assay with murine IL-11 [4], the “RGA Efficacy (%)” value was found to be 94.9% and the “RGA IC50” value came out at 1.1 nM. Besides, the “hIL2RA ELISA Binding: Ratio to Isotpye” value with human IL2Ra came to 447 ratio.

B17: TPP-26298 (antibody, V domains shown)
VH: B12 VH
VL: B12 VL with T23L, P95D
Turning to B17, in the assay with human IL-11 [3], the “RGA Efficacy (%)” value came to 62.9% and the “RGA IC50” value is 4.1 nM. For the same molecule, in the assay with murine IL-11 [4], the “RGA Efficacy (%)” value worked out at 96.3% and the “RGA IC50” value was 1.5 nM. Also, in the assay with human IL2Ra, the “hIL2RA ELISA Binding: Ratio to Isotpye” value stood at 474 ratio.

B18: TPP-26292 (antibody, V domains shown)
VH: B12 VH
VL: B12 VL with P95E
Turning to B18, the “RGA Efficacy (%)” value was 74% with human IL-11 [3] and 94.7% in the assay with murine IL-11 [4]. The results for the “RGA IC50” value in the assay with human IL-11 [3] and with murine IL-11 [4] were 5.6 nM and 0.94 nM, respectively. Moreover, the “hIL2RA ELISA Binding: Ratio to Isotpye” value with human IL2Ra stood at 557 ratio.

B19: TPP-26299 (antibody, V domains shown)
VH: B12 VH
VL: B12 VL with P95D, N98Y
Regarding B19, the “RGA Efficacy (%)” value in the assay with human IL-11 [3] stood at 70.1%; with murine IL-11 [4], 96.9%. Also, the results for the “RGA IC50” value with human IL-11 [3] and with murine IL-11 [4] were 3.1 nM and 0.94 nM, respectively. In the assay with human IL2Ra, the “hIL2RA ELISA Binding: Ratio to Isotpye” value came to 96 ratio.

B20: TPP-26293 (antibody, V domains shown)
VH: B12 VH
VL: B12 VL with G32W, P95D
With B20, the “RGA Efficacy (%)” value came out at 73.7% with human IL-11 [3] and 96.9% with murine IL-11 [4]. For the same molecule, the “RGA IC50” value in the assay with human IL-11 [3] was 2.8 nM; with murine IL-11 [4], 0.95 nM. In addition, in the assay with human IL2Ra, the “hIL2RA ELISA Binding: Ratio to Isotpye” value came to 384 ratio.

B21: TPP-26296 (antibody, V domains shown)
VH: B12 VH
VL: B12 VL with P95N
Regarding B21, in the assay with human IL-11 [3], the “RGA Efficacy (%)” value came out at 71% and the “RGA IC50” value turned out to be 20 nM. Also, in the assay with murine IL-11 [4], the “RGA Efficacy (%)” value worked out at 93.1% and the “RGA IC50” value was 2.9 nM. Further, the “hIL2RA ELISA Binding: Ratio to Isotpye” value in the assay with human IL2Ra amounted to 379 ratio.

The values are drawn from US20240317847A1 (Bayer, published 2024).
